These results are taken from patent publication US20220251167A1 (published 2022).

The target in the test is T1, DNAJB1-PRKACA fusion protein peptide on HLA-A*68:02 (human).
T1 peptide: EIFDRYGEEV
As to the kind of experiment: multimer staining. The source says:
Jurkat cells were engineered to express the FLC-P8R-4 TCR.

B1: P9R-4 (TCR)
alpha TRAV16*01 TRAJ4*01 CDR3: CALDMFSGGYNKLIF
beta TRBV15*01 TRBJ2-7*01 CDR3: CATSRVKTSGGYEQYF
As for B1, the binding result is on record as “recognises”.
